As usually defined, the Km is the concentration of substrate that gives half-maximal velocity. For orientation: Vmax means the top rate of the reaction or transport when substrate is in excess. A word on the kcat: it is the maximal rate divided by the concentration of active sites. In general, kcat/Km refers to the turnover number divided by the Michaelis constant. For orientation: stoichiometry N means a count of units in the complex or per binding partner.

Results on 1 protein are retold here after article PMC9260137 (Molecules and Cells, 2022).

Substrate in data set [1]: CC(C)C[C@H](N)C(=O)O
Nature of the data set: purified protein. The conditions noted are these: oxidative deamination, co-substrate NAD+, 37 °C.

Substrate in data set [2]: CC(C)[C@H](N)C(=O)O
Nature of the data set: purified protein. The note with it: oxidative deamination, co-substrate NAD+, 37 °C.

Substrate in data set [3]: CC[C@H](C)[C@H](N)C(=O)O
Nature of the data set: purified protein. The note with it: oxidative deamination, co-substrate NAD+, 37 °C.

Substrate in data set [4]: NC(=O)c1ccc[n+]([C@@H]2O[C@H](COP(=O)(O)OP(=O)(O)OC[C@H]3O[C@@H](n4cnc5c(N)ncnc54)[C@H](O)[C@@H]3O)[C@@H](O)[C@H]2O)c1
Nature of the data set: purified protein. The note with it: 37 °C, amino acid co-substrate not given, varied: cofactor.

The data set “SEC-MALS” deals with the molecule itself. Nature of the data set: SEC-MALS. (In general: SEC sorts molecules by how far they enter the pores of the column.)

B1: Leucine dehydrogenase from Pseudomonas aeruginosa (enzyme)
chain: MFDMMDAARLEGLHLAQDPATGLKAIIAIHSTRLGPALGGCRYLPYPNDEAAIGDAIRLAQGMSYKAALAGLEQGGGKAVIIRPPHLDNRGALFEAFGRFIESLGGRYITAVDSGTSSADMDCIAQQTRHVTSTTQAGDPSPHTALGVFAGIRASAQARLGSDDLEGLRVAVQGLGHVGYALAEQLAAVGAELLVCDLDPGRVQLAVEQLGAHPLAPEALLSTPCDILAPCGLGGVLTSQSVSQLRCAAVAGAANNQLERPEVADELEARGILYAPDYVINSGGLIYVALKHRGADPHSITAHLARIPARLTEIYAHAQADHQSPARIADRLAERILYGPQ
Consider B1, for which, in the data set “purified protein [1]”, the Km is 1.1 ± 0.1 mM, the Vmax is 21100 µM/min/mg, the kcat was 5.2 ± 0.5 s⁻¹ and the kcat/Km is 4300 ± 700 M⁻¹ s⁻¹. In addition, in “purified protein [2]”, the Km was 0.5 ± 0.1 mM, the Vmax was found to be 35000 µM/min/mg, the kcat was determined as 9.6 ± 0.8 s⁻¹ and the kcat/Km is 14400 ± 900 M⁻¹ s⁻¹. Further, in the data set “purified protein [3]”, the Km is on record as 0.4 ± 0.1 mM, the Vmax came to 7870 µM/min/mg, the kcat amounted to 1.8 ± 0.1 s⁻¹ and the kcat/Km worked out at 5800 ± 400 M⁻¹ s⁻¹. In the data set “purified protein [4]”, the Km is listed as 0.2 ± 0.1 mM and the Vmax is 23200 µM/min/mg. For the same protein, the “stoichiometry N” value in “SEC-MALS” was determined as 2.
